Data taken from the DeepSol protein solubility set.

Assay: soluble on expression in E. coli; label from the status in PepcDB or PDB records

Sequence	soluble on expression in E. coli
TGALMASSPQDIKFQDLVVFILEKKMGTTRRALLMELARRKGFRVENELSDSVTHIVAENNSGSDVLEWLQAQKVQVSSQPELLDVSWLIECIGAGKPVEMTGKHQL	soluble
MVSRHIPERLKKKIYQEANMTCPNCGERDVSTFEIHHIQPFVDVKKHEERNLILLCSNCHSKATVGELTEIEVLRLKVGLISSSSGQSKETMPSNVITLDSVKNHGVIANQVTLNNSPAKVVLLPAVGSIASSLKHQNYIKYLIDKYHAYKIVEVGKSNMKYPVFYNALKRKFGAKWDMVPIDRFLELSTYIQDRIEKTVLGKKLKAQGKKSYSTFEEYLAKNCSLEHHHHHH	not soluble
MSWTDERVELLKKMWGEGQSASQIAKELGGVTRNAVIGKVHRLGLSNRSSGAAPASTKAETKEKPAAATPRAEAKPKPAPRPEPLRAAPDPAPAPQPAEIKPIPARKQIIPAGQPLPPQPSANEISPEALAKVNEVEKKAKKLSLMELTERTCKWPVGDPATEDFWFCGLPVQQGKPYCEAHVGVAFQPMSSRRDRRRLEHHHHHH	soluble
MAHHHHHHMEGFPLGLAVIIDPPREKESGAMVEAHAARDNGSAAGSLSNGETNTADTGGDAYSGHSINNREQVPIALHNVCPTRFLWSRYEENGGMLLHMPRSKVCREHRKGLCRFGNECSFLHVCRQMPIGSGDEELLSHSRTPLRHSTVQGSMQDFSHPPSFATASGSLCHHAHSQSYSQANLQHFQGSTVMSQNGSYMDGSLGNSQTGSRPHLSRAPTASESYGGHQPLLRPLGGVQNSHSSVAARGSFSHNPYAEASSFQS	not soluble
MSPSPLISHRAASADLAGMVRQARQRILLQGNVPGFDVARQIELLHGLAESELGRFLLLYRGLNAEWTHRLVTHQPGSGALAPLERVFYERLPAVLATRERHGHFRRALQRHLRPGCVVASVPCGWMSELLALDYSACPGVQLVGIDYDPEALDGATRLAAGHALAGQITLHRQDAWKLDTREGYDLLTSNGLNIYEPDDARVTELYRRFWQALKPGGALVTSFLTPPPALSPDSPWDMQAIDPHDLQLQQLVFTRLIQPRWNALRTHAQTRAQLEEAGFTDLRFEDDRARLFPTVIARKPA	soluble
GKREPDLTGGFSTYLKYKNITFNALFSFSFGNKMRLNDLYESSGQRLPYPDQNMSSEFVNRWREPGDEDRTIIPVLSDKSLQINDKDVTYRIADNGWDMYNKSDIRVVSGSFLRCRSMSIRYDFKREWLKPVYLKGASVSFDMGNVFVIKDKALKGRDPEQIGFGSRSIPPQRSYSLRFNITL	not soluble
MGSDKIHHHHHHMGKSIRKIVNWKQYNQALVNRGSLTFWVDEAAVNTWYCHEHHGGRGRGFSYSDVAIETALMVKGIFNLSLRALEGFLNSLFTLMSVPLKSPDYTSISKRAKTVNIKYRNPSRGPIAHVVVDATGLKVFGEGEWKTRKHGSEKRRTWRKLHLAIDASTHEVVAAEVSLVSVGDNEVLPTLLNPLRRKITQVSADGAYDTKGCYQLLRRKGCKATIPPRSNAGLWEKRHPRNEAVEALKAGQLKHWKIDNGYHQRSLAETAMGRYKQLNSPMLSLRDYNGQVAEALAGVKAMNKVIRLGMPVRQQVA	not soluble
MKKLLFAIDDTEACERAAQYILDMFGKDADCTLTLIHVKPEFMLYGEAVLAAYDEIEMKEEEKAKLLTQKFSTFFTEKGINPFVVIKEGEPVEMVLEEAKDYNLLIIGSSENSFLNKIFASHQDDFIQKAPIPVLIVK	soluble
MDDLIELEISKTQCIRIYLPCKKEDLDFFDCVTIEYLKEQTEYILYYKDLSGAAIISLKELLEKALNFKLQIENEYKDKGIGYYHSIYTNNIYANKLQTAGSQDLIDPTKDFLVWSTLGPTSIGTFIYNDQDKIYIEISPLYEWFNHIFDDILEEYNEVKDEDASFDDFLNNYKPIDIVAIDRKVAEKWLEFCCEMIEILKANDKKQLK	not soluble
MKSEANLRGMIDIEFYYHTCEAKKYFRNEVINYLVNLKSNVTIEMTRYWTEGADVVNHLFFCNIHGIGIPNLHGVLFQVKSYRYYSGFLLSTASQSFCG	not soluble
SLKYVDEFRNGDYAKTLVRLIQKLTKKKINIMEICGSHTMAIFRYGIKDILPSNIRLISGPGCPVCVTSQGYIDTALELSLSREVIIATFGDMIRVPGTKTSLMKRKAEGADIKIVYSPMDALTLAENNPLKKVVFLSVGFETTTPITAITILEAKKRGVKNIFFLTSNKMVPPVMRTLVEDKELNITGFLLPGNVSAIIGKKPYEFLSSEYNVSGVVTGFEPLDILKGLKVLIDIINNNASVIVNEYKRVVRDEGNVTALRYIKEVFEVTDSTWRGIGNIEKSGYKINTEYEQFDAVKQFNINYKECDSSSECRCGDILKGKITPIECSLFKKACTPDHPVGSCMVSYEGVCAAYYKFLNT	soluble
MSRIGRIPVAIPKGVDVKLGDNNTLTVKGQKGTLTKQFHKDMIIKVEGDKIIVQRPSDEKKHKALHGLTRTLINNMVIGVTQGYEKALEINGVGYRAQKQGKKLILTLGYSHPVEMEEPQGITVEVPAPNKIVVKGADKQAVGEFAAKIRSKREPEVYKGKGIKYEDEVIRRKEGKAGGKGKK	not soluble
MSLIFNKNCNVNKETQIEAFAIKNHDKKFVYPMGNIIGVKANTDGVLVLGYEEEDVDYIGGIQIGDNIVKIDNKRIKNSQDVSEILNKIKKSKVEVTFERKNKYKTEVIETKKENGKYKLGLWVRDKISGIGTMTFYDPSMEKFKAIGHAIKDSDTNELLKIKQGYIYKPEQLKIVKASNEKVGKIKGDFNDSNLMGNFSNNSELGISGNITENHNKEFNVANKEKQLIEVGRPQDVKIGDAVILFEDKNKNITSYDIKIESIVYDKGNYRDMVIKVVDDKLLEYTGGIVQGMSGAPIIQNNKIIGAITHVFRDNPKKGYGIFIDEMIKLEGHHHHHH	soluble
MKVVAAYLLAKLSGNENPSVADLKKIVESVGAEIDQEKIDLFFSLIKDRDVTELIAVGREKMAALSSGGGAVAVASGGGGGAAPAAEPASVESKKKEEEKEESEDDGGMMSLFD	soluble
MKPVTLYDVAEYAGVSYQTVSRVVNQASHVSAKTREKVEAAMAELNYIPNRVAQQLAGKQSLLIGVATSSLALHAPSQIVAAIKSRADQLGASVVVSMVERSGVEACKAAVHNLLAQRVSGLIINYPLDDQDAIAVEAACTNVPALFLDVSDQTPINSIIFSHEDGTRLGVEHLVALGHQQIALLAGPLSSVSARLRLAGWHKYLTRNQIQPIAEREGDWSAMSGFQQTMQMLNEGIVPTAMLVANDQMALGAMRAITESGLRVGADISVVGYDDTEDSSCYIPPLTTIKQDFRLLGQTSVDRLLQLSQGQAVKGNQLLPVSLVKRKTTLAPNTQTASPRALADSLMQLARQVSRLESGQ	soluble
MTPDQMRDASLLELFRLEAEAQTQVLNAGLMALERSPTQADQLEACMRAAHSLKGAARIVGLDAGVRVAHVMEDCLVEAQDGRLLLQSEHIDALLQGCDLLLRIGTPPAGDAGWAEGAGREEIDGLVLRLEGLVRSGLPLARAELPATTPGLPEAVPEAPPAASAAASDDNDEEPAGQAGGEQAEERRSRVLRVTAERLDRLLDISSKSLVEFQRIKPLADSLQRLRRLQSSASRALDVVRETVQETALDPQAQAMLGEARQLIGECQQMLVQHIADLDEFAWQGGQRAQVLYDAALASRMRPFADVLSGQARMVRDLGRSLGKQVRLLVEGESTQVDRDVLEKLEAPLTHLLRNAVDHGIEAPETRLAAGKPAEGRITIRARHHAGMLVLELSDDGGGIDLQRLRETVLNRQFATAETVAQLSEEELLAFLFLPGFSMREQVTEVSGRGVGLDAVQHMVRQLRGGVRMEQRQGQGALFHVEVPLTLSVVRSLVVEIGEEAYAFPLAHIERMCELEAEEIVQLEGRQHFWYEGRHVGLVSAAQLLQRPESSRTEGAIPVVVVRDRDAVYGVAVERFVGERTLVVMPLDPRLGKVRDVSAGALLDDGSPVLILDVEDLLHSVGKLLSSGRLERIDRSRRQAGGAQRKRILVVDDSLTVRELERKLLLGRGYDVAVAVDGMDGWNALRSEHFDLLITDIDMPRMDGIELVTLVRRDSRLQSLPVMVVSYKDREEDRRRGLDAGADYYLAKASFHDEALLDAVVVLIGEAQG	not soluble
MKKDLSALKEARFNAILDSATILLVENPTASMNEIAEYAGIGIATLHRYVESREKLMLFLGHRAIQLVSDTVNQIPLDEERSENYIPELIEALIPLGDKIYFLGHDASVFNNKELGEAEEKLREPLRRVIELLQQRGYFQQTVSSEWILNTLYALLFHTWEQVHEGNVAKKSAAELVLNTFYYGFKAKDELRGK	not soluble
MSRQTEIVRRMVSAFNTGRTDDVDEYIHPDYLNPATLEHGIHTGPKAFAQLVGWVRATFSEEARLEEVRIEERGPWVKAYLVLYGRHVGRLVGMPPTDRRFSGEQVHLMRIVDGKIRDHRDWPDFQGTLRQLGDPWPDDEGWRP	soluble
KSITIQTPYLIPDQPIYESLTIALAAGVKVNIFIPDRPDHPFVYRATQYYAQEFIDFGANVYRYDGGFLHSKLLIIDDEIVSIGSANMDIRSFELSFEANAFIYSSYFAKKIEKQISIDISKSKLLSKKDFETQ	not soluble
MERLHLSWEDLLRLVRRLAEALSGEPFDLVLGVARGGLIPTALLAQALGARNILTAAVMFYEGEEALPEPVFLQFPPDVLLFGKRVLVVDDVWDSGRTAFAVKARVRRAGGVPVVATLHFKPGRNRVPDRPDFYAEETAAWVVYPWALEAWPKG	soluble
SNAWGLSVERSTYFLAPADRHYLADYARQAEDAWRREGAAGAERFRKELSAKEDTWVALVGPHLESLGSTPLSAEESSHLTFMRKLDWPMSRRLQDELPYVSIEFPGHPEQGRLVIQLPERLLPG	soluble
MSLKPSTRSNVQPFRVMQMLDRVHRRRREGKDTLMFCAGQPSTGAPEAVIEEAEIALRSGPLGYTEVIGDREFRERIADWHSATYDVDTNPDNVIVTTGSSGGFVASFIATLDHGDYVAMPTPGYPAYRNILESLGAKVLNLRCTAETRFQPTAQMLEELPHKPKAVIVTSPGNPTGTIIDPEELERIAKWCDDNDAVLISDEDYHGMSFGRPLATAHQFSKNAIVVGTLSKYFSMTGWRVGWIIVPDELVTPIENLQASLSLCAPAIGQAAGRAAFTLEAGAELDAHVEAYREAREVFVDKLPEIGLGTFADPDGGLYLWVDVSAYTDDSEEWALRLLDEAGVAVAPGVDFDPEEGHKWIRLSLCASKEDTIEGVRKIGEFIKKEGHHHHHH	soluble
MSLKKILIIVPDGGMLFESAGIADILMQANRLHPEGAREICYQVKLATTQPHQVIHGQSGLNLLADHRLHEIDPREPLDTIMITGRGQNPQEGMAVVDWLRLAAPHARRIVSICGGAMLLAQTGLLDGRRATTHWKLLETMQAEFPQIRVEGGPLYIQDEHIWTSGGVSSGFDLTLALVEEDYGEGHHHHHH	not soluble
PSARDILQQGLDRLGSPEDLASRIDSTLLSPRATEEDVRNLVREASDYGFRCAVLTPVYTVKISGLAEKLGVKLCSVIGFPLGQAPLEVKLVEAQTVLEAGATELDVVPHLSLGPEAVYREVSGIVKLAKSYGAVVKVILEAPLWDDKTLSLLVDSSRRAGADIVKTSTGVYTKGGDPVTVFRLASLAKPLGMGVKASGGIRSGIDAVLAVGAGADIIGTSSAVKVLESFKSLV	soluble
MSLSAPLPLCVIGAGCVGMRHVEVARRSPQIRLTAVVEPVETRRRALAESGLVAVATLEEVPRETRAAIVATPTPDHLATGLAALSRGWAVLVEKPTAGTMDDARVLLGAADRAGLPLYVGHHRRCHPFSRAAREALGGIGDLVGLQGLWSLRKHDSYYAEDWRRQAGAGPLMTNLSHEIDLLRFLVGDMVEVSALTSSARRGLVVPDTAALAFRFADGALGSFLISDAGASPWSFEAACAENPAIAVSGQDYIRITGTAGALEFPSLTRWGRSAPGEIEWSKPLARAAGAGFARVDPLLEQINRFAAVLEGAQDDVLCTGTDGNAALEMTLAAALSGKLGRPVRAHEVPGDYSGEGHHHHHH	soluble
